The labels stand for the following.
B1: SEQ ID No 196 peptide … (peptide)
peptide: LYIDRPLPYL
B2: SEQ ID No 284 peptide … (peptide)
peptide: RYLNKAFHI
B3: SEQ ID No 289 peptide … (peptide)
peptide: KYPVEWAKF
B4: SEQ ID No 174 peptide … (peptide)
peptide: VYVGGGQIIHL
B5: SEQ ID No 166 peptide … (peptide)
peptide: YYVESGKLF
B6: SEQ ID No 283 peptide … (peptide)
peptide: TYGDAGLTYTF
B7: SEQ ID No 201 peptide … (peptide)
peptide: IYATEAHVF
B8: SEQ ID No 163 peptide … (peptide)
peptide: DYLKGLASF
B9: SEQ ID No 281 peptide … (peptide)
peptide: PYRLIFEKF
B10: SEQ ID No 195 peptide … (peptide)
peptide: TYSVSFPMF
B11: SEQ ID No 222 peptide … (peptide)
peptide: TFSVSSHLF
B12: SEQ ID No 164 peptide … (peptide)
peptide: KFSSFSLFF
B13: SEQ ID No 209 peptide … (peptide)
peptide: TYKDEGNDYF
B14: SEQ ID No 176 peptide … (peptide)
peptide: EYNQWFTKL
B15: SEQ ID No 165 peptide … (peptide)
peptide: DYTTWTALL
B16: SEQ ID No 160 peptide … (peptide)
peptide: VYTLDIPVL
B17: SEQ ID No 167 peptide … (peptide)
peptide: NYINRILKL
B18: SEQ ID No 202 peptide … (peptide)
peptide: VYWDSAGAAHF
B19: SEQ ID No 197 peptide … (peptide)
peptide: EYSLFPGQVVI
B20: SEQ ID No 169 peptide … (peptide)
peptide: AYTLIAPNI
B21: SEQ ID No 200 peptide … (peptide)
peptide: YYGPSLFLL
B22: SEQ ID No 270 peptide … (peptide)
peptide: NYYEVHKELF
B23: SEQ ID No 207 peptide … (peptide)
peptide: AYVVFVSTL
B24: SEQ ID No 285 peptide … (peptide)
peptide: HYPPVQVLF
B25: SEQ ID No 277 peptide … (peptide)
peptide: VYQGHTALL
B26: SEQ ID No 158 peptide … (peptide)
peptide: HYSQELSLLYL
B27: SEQ ID No 218 peptide … (peptide)
peptide: YYKSTSSAF
B28: SEQ ID No 162 peptide … (peptide)
peptide: VFTRVSSFL
B29: SEQ ID No 171 peptide … (peptide)
peptide: LFIPSSKLLFL
B30: SEQ ID No 161 peptide … (peptide)
peptide: IYLVSIPEL
B31: SEQ ID No 159 peptide … (peptide)
peptide: LYNKGFIYL
B32: SEQ ID No 204 peptide … (peptide)
peptide: TYELRYFQI
B33: SEQ ID No 168 peptide … (peptide)
peptide: KYQDILETI
B34: SEQ ID No 199 peptide … (peptide)
peptide: RYAEEVGIF
B35: SEQ ID No 269 peptide … (peptide)
peptide: YFIDSTNLKTHF
B36: SEQ ID No 173 peptide … (peptide)
peptide: IYSWILDHF
B37: SEQ ID No 288 peptide … (peptide)
peptide: VYVSDIQEL
B38: SEQ ID No 170 peptide … (peptide)
peptide: VYEDQVGKF
B39: SEQ ID No 286 peptide … (peptide)
peptide: RYPDNLKHL
B40: SEQ ID No 287 peptide … (peptide)
peptide: LYITEPKTI
B41: SEQ ID No 268 peptide … (peptide)
peptide: QYLGQIQHI
B42: SEQ ID No 175 peptide … (peptide)
peptide: YYEVHKELF

In US20170189505A1 one finds peptide exchange yield data, which are given here for 42 molecules.

The assay addresses HLA-A*24 (human). Briefly: UV peptide exchange, anti-b2m ELISA.
For the molecule B1, the peptide exchange yield is 50 to 75%. For B2, the peptide exchange yield fell in the range of 50 to 75%.

On to B3, for which the peptide exchange yield is greater than 75%. Turning to B4, the peptide exchange yield lay within 50 to 75%. With B5, the peptide exchange yield is greater than 75%.

Molecule B6 came in with a peptide exchange yield of 50 to 75%.

B7 returned a peptide exchange yield of 50 to 75%. B8 registered a peptide exchange yield greater than 75%. For the molecule B9, the peptide exchange yield is 20 to 49%. In the case of B10 it was greater than 75%.

The molecule B11 had a peptide exchange yield of 50 to 75%. The value for B12 was 50 to 75%. Molecule B13 registered a peptide exchange yield of 50 to 75%. The value for B14 was 50 to 75%.

B15 came in with a peptide exchange yield greater than 75%. In the case of B16 it was greater than 75%; in that of B17, greater than 75%. Turning to B18, the peptide exchange yield was greater than 75%.

Take B19: the peptide exchange yield was in the range of 50 to 75%. B20 came in with a peptide exchange yield of 50 to 75%. The value for B21 was 50 to 75%; that for B22 was 50 to 75%; that for B23 was 20 to 49%.

Molecule B24 displayed a peptide exchange yield of 50 to 75%. In the case of B25 it was greater than 75%; in that of B26, greater than 75%; in that of B27, 50 to 75%. Molecule B28 gave a peptide exchange yield of 50 to 75%. The value for B29 was 50 to 75%; that for B30 was greater than 75%.

Regarding B31, the peptide exchange yield is greater than 75%. The molecule B32 had a peptide exchange yield greater than 75%. Regarding B33, the peptide exchange yield was greater than 75%.

On to B34, for which the peptide exchange yield fell in the range of 50 to 75%. In the case of B35 it was 50 to 75%; in that of B36, greater than 75%; in that of B37, 50 to 75%. B38 had a peptide exchange yield of 20 to 49%. Molecule B39 had a peptide exchange yield of 20 to 49%. The value for B40 was 50 to 75%; that for B41 was 50 to 75%. The value for B42 was greater than 75%.
